Experimental findings from patent US20120134979A1, “METHODS AND COMPOSITIONS FOR THE TREATMENT OF SICKLE CELL DISEASE” (priority 2010, published 2012) are described below.

What all share (type): in vivo, mouse
The subject of series [1] is SCD Tg mice. Nature of the series: 2,3-DPG in RBCs and saturated Hb in SCD Tg mice after chronic treatment. Here is the method:
(§1) Chronic PEG-ADA therapy. SCD transgenic mice, at eight weeks of age, were divided to two groups. One group was injected with 2.5 U PEG-ADA weekly for 8 weeks. This dosing protocol was designated SCD with PEG-ADA treatment regimen (SCD+PEG-ADA). Another group was injected with normal saline for 8 weeks; it was designated as SCD without PEG-ADA treatment regimen (SCD). Wild-type mice (C57Bl/6) used as control were injected with saline or PEG-ADA as with the SCD groups.
(§2) Chronic treatment with A2BR antagonist, PSB1115. SCD transgenic mice or wild type mice (eight weeks of age) were divided to two groups, one groups was injected with 200 μg of PSB1115 (an A2B receptor antagonist: obtained from Tocris Bioscience, St. Louis, Mo.) in PBS, daily for 8 weeks. One of groups was injected with saline.
2,3-DPG analysis. 2,3-DPG concentration in RBCs was detected by a commercially available kit (Roche, Nutley, N.J., and as described in Ericson A, de Verdier C H. A modified method for the determination of 2,3-diphosphoglycerate in erythrocytes. Scandinavian journal of clinical and laboratory investigation. 1972; 29(1):84-90).
Measurement of percentage of saturated Hb in mice. Percentage of saturated Hb (SpO2) in mice was measured by Oxysat (Kent Scientific Corp, CT). Mice were held in mouse holders (Kent Scientific Corp, CT) and Oxysat sensor was placed on a site approximately 1 cm from the base of the tail. When mouse was calm, the SpO2 was continuously recorded for about 2 minutes. The data were collected and SpO2 was calculated by average of SpO2 in two-minute measurement.

In the next series the test system is WT mice. The experiment in a line: WT (control) mice treated with PEG-ADA or PSB1115 for 8 weeks. Particulars: chronic PEG-ADA enzyme therapy. The source says: Mice. Berkley sickle cell disease transgenic mice (SCD Tg mice), expressing exclusively human sickle hemoglobin (HbS) were purchased from The Jackson Laboratory Inc (Paszty, C. Transgenic and gene knock-out mouse models of sickle cell anemia and the thalassemias. Curr Opin Hematol 4, 88-93, 1997). C57BL/6 mice used as controls were purchased from Harlan Laboratories. Adenosine receptor deficient mice were obtained from the following sources: A1R-deficient mice (Jurgen Schnermann, NIDDK, NIH); A2AR-deficient mice (Jiang-Fan Chen, Boston University School of Medicine); A2BR-deficient mice (Michael R. Blackburn, University of Texas-Houston Medical School); and A3R-deficient mice (Marlene Jacobson, Merck Research Laboratories). […]
Mouse organ isolation and histological analysis. Mice were anesthetized and body weight was determined. […] Semiquantification of histological changes was analyzed by Image-Plus, Pro software.

Series [2] deals with SCD Tg mice. The experiment in a line: Hematological parameters of SCD Tg mice treated with PEG-ADA or PSB1115 for 8 weeks. The note with it: 8 weeks treatment.
Description: Mice. Berkley sickle cell disease transgenic mice (SCD Tg mice), expressing exclusively human sickle hemoglobin (HbS) were purchased from The Jackson Laboratory Inc (Paszty, C. Transgenic and gene knock-out mouse models of sickle cell anemia and the thalassemias. Curr Opin Hematol 4, 88-93, 1997). C57BL/6 mice used as controls were purchased from Harlan Laboratories. Adenosine receptor deficient mice were obtained from the following sources: A1R-deficient mice (Jurgen Schnermann, NIDDK, NIH); A2AR-deficient mice (Jiang-Fan Chen, Boston University School of Medicine); A2BR-deficient mice (Michael R. Blackburn, University of Texas-Houston Medical School); and A3R-deficient mice (Marlene Jacobson, Merck Research Laboratories). All receptor deficient mice were backcrossed at least 10 generations onto the C57Blk/6J background and were genotyped according to established protocols (Sun, D., et al. Mediation of tubuloglomerular feedback by adenosine: evidence from mice lacking adenosine receptors. Proc Natl Acad Sci USA 98, 9983-9988, 2001; Nemeth, Z. H., et al. Adenosine receptor activation ameliorates type 1 diabetes. FASEB J, 2007; Chen, J. F., et al. A2A adenosine receptor deficiency attenuates brain injury induced by transient focal ischemia in mice. J Neurosci 19, 9192-9200, 1999; Salvatore, C. A., et al. Disruption of the A3 adenosine receptor gene in mice and its effect on stimulated inflammatory cells. The Journal of Biological Chemistry 275, 4429-4434, 2000). Animals were maintained in accordance with institutional and NIH guidelines under research protocols that were reviewed and approved by the University of Texas Health Science Center at Houston Animal Welfare Committee.
as §1, §2
Morphological study of erythrocytes and quantification of reticulocytes by flow cytometry. Blood smears were stained using the WG16-500 ml kit (Sigma-Aldrich) for sickled cells and observed using 100× oil immersion objective of Olympus BX60 microscope. […] The percentages of sickled cells among the counted cells were calculated. Reticulocyte was labeled by Retic-COUNT Reagent (Becton Dickinson) and quantified by flow cytometry (Perumbeti, et al., A novel human gamma-globin gene vector for genetic correction of sickle cell anemia in a humanized sickle mouse model: critical determinants for successful correction. Blood. 2009; 114(6):1174-1185).

B1: PEG-ADA: polyethylene glycol-modified adenosine deaminase, a drug used to lower adenosine concentrations in ADA-deficient humans (protein, UniProt P56658 2-363, looked up)
Adenosine deaminase: AQTPAFNKPKVELHVHLDGAIKPETILYYGRKRGIALPADTPEELQNIIGMDKPLSLPEFLAKFDYYMPAIAGCREAVKRIAYEFVEMKAKDGVVYVEVRYSPHLLANSKVEPIPWNQAEGDLTPDEVVSLVNQGLQEGERDFGVKVRSILCCMRHQPSWSSEVVELCKKYREQTVVAIDLAGDETIEGSSLFPGHVKAYAEAVKSGVHRTVHAGEVGSANVVKEAVDTLKTERLGHGYHTLEDATLYNRLRQENMHFEVCPWSSYLTGAWKPDTEHPVVRFKNDQVNYSLNTDDPLIFKSTLDTDYQMTKNEMGFTEEEFKRLNINAAKSSFLPEDEKKELLDLLYKAYGMPSPASAEQCL
modifications: PEGylated
Regarding B1, the “percentage of saturated Hb” value in the series on SCD Tg mice [1] (chronic PEG-ADA treatment) is “increased”. In the series on SCD Tg mice [1] (steady state, 8 weeks treatment), the “2,3-DPG levels in the RBCs” value is given as “reduction”. The “effect on kidney histology of control mice” value in the series on WT mice is given as “no significant effect”. In the series with SCD Tg mice [2], this molecule gave an HCT of 30.15 ± 8.90 %, a Hb of 7.71 ± 2.64 g/dL, an MCH of 12.38 ± 2.85 pg and an MCHC of 25.33 ± 1.21 g/dL. In the series on SCD Tg mice [2], the MCV was found to be 48.58 ± 8.79 fL, the RDW worked out at 28.03 ± 1.14 %, the Reticulocyte was 43 ± 4.52 % and the Sickle cell amounted to 10.35 ± 0.39 %. In the series with SCD Tg mice [2], this molecule showed a WBC of 15.00 ± 2.79 k/μl. In the series on SCD Tg mice [2] (mean ± SEM), this molecule had an RBC of 6.15 ± 1.01 M/μl.
